Here are results for two substances from patent US20050239072.

In the data set the target is human recombinant prion protein hrPrP (PrP23-231) (Homo sapiens) (UniProt P04156). Put plainly: FP filter.
Where [1] appears, read: no tRNA, 250 mM NaCl, 2 mM MgCl2, 37 C.

Regarding MDV (244 nt), the Kd is, setting by setting: under setting [1], 7.6 nM; (with tRNA competitor) 170 nM.

Take MNV (86 nt): the Kd amounted to 38 nM under setting [1] and 1000 nM (with tRNA competitor).
